Results: the nanobody polyreactivity screen of Harvey et al. (2022)

Experiment: yeast display, Sf9 membrane polyspecificity reagent, FACS + sequencing; frameworks hold sequencing errors
Procedure, shortened: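 Synthetic nanobody libraries on Saccharomyces cerevisiae BJ5465 were galactose-induced for 36–48 hours, stained 1 hour at 4 °C with 10% biotinylated, detergent-solubilized Sf9 membrane reagent and enriched on streptavidin microbeads. FACS then separated cells into low and high (top ~1%) gates by anti-HA (expression) and streptavidin (reagent binding) fluorescence. Genes were colony-PCR amplified, MiSeq 2 × 250 sequenced and CDR-length filtered. A clone's polyreactivity label is that of its gate of origin.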

Sequence	polyreactivity (PSR sort gate)
QVQLVESGGGLVQAGGSLSLSCAASGFTFGTYTMGWYRQAPRKEREFVAAISFSGTTTYYADSVKGRFTISRDNAKNTVYLQMNSLKPEDTAVYYCATRSPRKGVKGHFRYYYWGQGTQVTVSS	high polyreactivity
QVQLVESGGGLVQAGGSLSLSCAASGFTFYGNAIGGNRQAPGKERELVASISTYYADSVKGRFTISRDNAKNTVYLQMNSLKPEDTAVYYCAATHYDRTYYVIYDYWGQGTQVTVSS	low polyreactivity
QVQLVESGGGLVQAGGSLSLSCAASGFTFYYYAMGWYRQAPGKERELVAAISTRDGNTYYADSVKGRFTISRDNAKNTVYLQMNSLKPEDTAVYYCAADYFRYYPYDYWGQGTQVTVSS	low polyreactivity
QVQLVESGGGLVQAGGSLSLSCAASGFTVYGYAMGWYRQAPGKERELVAAISRRSSSTYYADSVKGRFTISRDNAKNTVYLQMNSLKPEDTAVYYCNTVFQRTGYAAGVDYWGQGTQVTVSS	high polyreactivity
QVQLVESGGGLVQAGGSLSLSCAASGGTFLSNAMGWYRQAPGKERELVASISWGGGSTTYADSVKGRFTISRDNAKNTVYLQMNSLKPEDTAVYYCNALDGPGYYVDYDYWGQGTQVTVSS	low polyreactivity
QVQLVESGGGLVQAGGSLSLSCAASGITFNIYVMGWYRQAPGKERELVAAITDSGGTTYYADSVKGRFTISRDNAKNTVYLQMNSLKPEDTAVYYCAAEPFYSWWWWGDYWGQGTQVTVSS	high polyreactivity
QVQLVESGGGLVQAGGSLSLSCAASGITFVWYALGWYRQAPGTERELVAAISRGGSTYYADSVKGRFTISRDNAKNTVYLQMNSLKPEDTAVYYCNAESAARSTVQQARGYYWGQGTQVTVSS	high polyreactivity
QVQLVESGGGLVQAGGSLSLSCAASGLNFVKNTMGWYRQAPGKETELVAGISQRGGSTYYADSEKGRFTISRDNAKNTVYLQMNSLKPEETAVYYCAAYSRTFEGHRGGYWGQGTQVTVSS	high polyreactivity
QVQLVESGGGLVQAGGSLSLSCAASGRIFDYYAMVWYRQAPGKERDLVAAISTSGGSTYYADSVKGRFTISRDNAKNTVYLQMISLKPVDTAVYYCAKDITVTYPGLDYDYWGQGTQVSVSS	low polyreactivity
QVQLVESGGGLVQAGGSLSLSCAASGRIFGRNAMGWYRQAPGKERELVAAISSSGGTYYADSVKGRFTISRDNAKNTVYLQMISLKPEDTAVYYCNDRVRTQQRWVDYWGQGTQVTVSS	high polyreactivity
QVQLVESGGGLVQAGGSLSLSCAASGRIFGRYAMGWYRQAPGTERVLVAVISSGGSKYYADSVKGRFTISRDNAKNTVYLQMNSLKPEDTAVYYCAAVNRRGYDYWGQGTQVTVSS	low polyreactivity
QVQLVESGGGLVQAGGSLSLSCAASGRIFKSYAMGWYRQAPGKERELVAAIRSGGSTYYADSVKGRFTISRDNAKNTVYFQMNSLKPEDTAVYYCNRVTRTWKVTYHYWGQGTQVTVSS	high polyreactivity
QVQLVESGGGLVQAGGSLSLSCAASGRIFNRNAMGWYRQAPGKEREFVAAISYSSGSTYYADSVKGRFTISRDNAKNTVYLQMNSLKPEDTAVYYCAAKVYNSRRNGYFGWTWGGYDYWGQGTQVTVSS	high polyreactivity
QVQLVESGGGLVQAGGSLSLSCAASGRIFQPYAMGWYRQAPGKERELVARITSGGSTYADSVKGRFTISRDNAKNTVYLQMNSLKPEDTAVYYCAVRFPWYYRGYAYDYWGQGTQVTVSS	high polyreactivity
QVQLVESGGGLVQAGGSLSLSCAASGRIFRRYAMGWYRQAPGKERELVAAISRGGSTYYADSVKGRFTISRDNAKNTVYLQMISLKPEDTAVYYCAAYSQSTSFGGYDSWGQGTQVTVSS	high polyreactivity
QVQLVESGGGLVQAGGSLSLSCAASGRIFRVYAMGWYRQAPGKERELVAAISSRGGRTYYADSVKGRFTISRDNAKNTVYLQMNSLKPEDTAVYYCAADGRSSSRATSRYDYWGQGTQVTVSS	high polyreactivity
QVQLVESGGGLVQAGGSLSLSCAASGRIFYGYAMGWYRLAPGKERELVAAIRTSGGSTYYADSVKGRFTISRDNAKNTVYLQMNSLKPEDTAVYYCNAGIVPRNRYYTPYNYWGQGTQVTVSS	low polyreactivity
QVQLVESGGGLVQAGGSLSLSCAASGRIFYVNAMGWYRQAPGKERELVAAISRSGSSTYYADSVKGRFTISRDNAKNTVYLQMNSLKPEDTAVYYCAARYYGRSQHHFDYWGQGTQVTVSS	high polyreactivity
QVQLVESGGGLVQAGGSLSLSCAASGRIIGFNAMGWYRQAPGKERELVASIRTTGGSTRYADSVKGRFTISRDNAKNTVYLQMNSLKPEDTAVYYCAARWGKTLWQYNYWGQGTQVTVSS	high polyreactivity
QVQLVESGGGLVQAGGSLSLSCAASGRILFRYGMGWYRQAPGKERELVARISWSGGNTHYADSVKGRFTISRDNAKNTVYLQMNSLKPEDTAVYYCNAYYTYWYPRYDYWGQGTQVTVSS	low polyreactivity
QVQLVESGGGLVQAGGSLSLSCAASGRMFLRYAMGWYRQAPGKERELVAVITWSGGSTYYADSVKGRFTISRDNAKNTVYLQMNSLKPEDTAVYYCAADWYPTGFYYWGQGTQVTVSS	low polyreactivity
